Reference: US10772928B2, “Modulation and detection of a neuronal alternative splicing regulatory network for treatment and diagnosis of neurological disorders” (The Governing Council of the University of Toronto, priority 2014, dated 2020)

Experiments:
nSR100 [1] = target: T1, nSR100 (Mus musculus, UniProt Q8BKA3); test: AP-MS nSR100 interaction partners from mouse N2A cells (Table 5); format: binding; details: for AvgP (average of the SAINT scores) / MaxP (maximal SAINT score): bait Srrm4; for FoldChange between the prey Avg spectra of the bait and control purifications: bait Srrm4, 0.1 added to prevent division by 0; for AvgSpec (average number of spectra per replicate): bait Srrm4, 2 replicates; for Spectra (number of spectra for the prey in the purification of the bait): AP-MS; for SpecSum: bait Srrm4, sum of spectra over 2 replicates
T1 construct: host or cells: mouse N2A cells
T1 sequence (Q8BKA3 1-608): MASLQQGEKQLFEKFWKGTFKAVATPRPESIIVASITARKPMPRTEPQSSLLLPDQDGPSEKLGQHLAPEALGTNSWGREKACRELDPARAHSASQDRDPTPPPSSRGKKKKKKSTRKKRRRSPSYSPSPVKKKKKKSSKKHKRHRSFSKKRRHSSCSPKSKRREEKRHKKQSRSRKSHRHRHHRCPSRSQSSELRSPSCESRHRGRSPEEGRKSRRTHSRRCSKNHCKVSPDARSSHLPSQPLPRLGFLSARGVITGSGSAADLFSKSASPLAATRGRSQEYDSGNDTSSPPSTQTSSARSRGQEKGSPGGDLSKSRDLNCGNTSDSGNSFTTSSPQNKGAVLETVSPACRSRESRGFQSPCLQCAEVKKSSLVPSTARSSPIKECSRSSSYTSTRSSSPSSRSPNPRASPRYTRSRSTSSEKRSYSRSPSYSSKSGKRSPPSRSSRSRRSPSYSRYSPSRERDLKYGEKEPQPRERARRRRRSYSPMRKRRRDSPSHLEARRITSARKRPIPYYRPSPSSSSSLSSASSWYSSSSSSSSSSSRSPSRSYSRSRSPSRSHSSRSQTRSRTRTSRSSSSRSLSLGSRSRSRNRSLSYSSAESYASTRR
From the text: By applying affinity purification coupled to mass-spectrometry (AP-MS), several interaction nSR100 partner proteins were detected that provide insight into mechanisms of post-translational regulation of nSR100 levels.

nSR100 [2] = test: nSR100 protein (western blot) and mRNA (qRT-PCR) levels in KCl-depolarized DIV11 cortical neurons; format: cell-based, mouse
From the text: A) Overlap between microexons that are skipped in humans with ASD (upper set), skipped upon neuronal depolarization (lower left set) and nSR100-regulated microexons (lower right set). B) Microexons were plotted based on their PSI difference between depolarized and resting wild-type neurons (X-axis), and between nSR100^Δ7-8/Δ7-8 and nSR100^+/+ mice (Y-axis). C) Cumulative distribution plots indicating the position of the first UGC motif within 200 nt upstream of neuronal activity-regulated microexons (dashed curve) or longer cassette exons (thick solid curve) vs. non-neural alternative cassette exons (light solid curve). The number of exons used to analyze each subgroup is shown in parentheses. D) Western blot on KCl-treated DIV11 cortical neurons (left panel) and quantification of nSR100 protein level (right panel). E) RT-PCR showing increased intron retention and microexon inclusion in nSR100 transcripts early after depolarization of DIV11 cortical neurons. […] G) Representative RT-PCRs on nuclear and cytosolic fractions (left panel) to assess localization of nSR100 transcripts in three replicates of cultured DIV4 cortical neurons with qRT-PCR quantification of the abundance of nSR100 isoforms harboring the retained intron, normalized to GAPDH levels in the correspondent cell fractions from six replicates (right panel). […]

[3] = tested on: hippocampal mouse neurons; test: RNA-Seq analysis of alternative splicing events after KCl depolarization of cultured hippocampal neurons (Table 3); format: cell-based; details: for number of alternative splicing events displaying changes: change of at least 15
Procedure: A) Number of alternative splicing events with PSI, percent intron retention (PIR) or percent splice site usage (PSU) changes of at least 15, 30 minutes and 3 hours after neuronal depolarization. B) Microexons and cassette exons are preferentially skipped following neuronal depolarization, whereas retained introns show no directionality. C) Gene ontology analysis of microexons and cassettes exons with ΔPSI≥15 during neuronal depolarization.
A systematic analysis of alternative splicing events modulated by neuronal activity, including microexons, longer cassette exons, retained introns and alternative 5′ and 3′ splice sites was first performed. Cultured wild-type hippocampal mouse neurons were depolarized using KCl treatment for thirty minutes or three hours and RNA-Seq analysis was performed on these samples. […] Among the additional alternative splicing events affected by neuronal depolarization were 887 (of 10830 detected alternative cassette exons>27 nt; 8.1%) alternative cassette exons and 672 retained introns. Longer alternative cassette exons were also primarily skipped in depolarized neurons (747/887; 84.2%) (FIG. 42B). Genes harboring depolarization-dependent alternative cassette exons have functions related to signal transduction and transcription regulation whereas those with microexons relate primarily to vesicle transport (FIG. 42C).

[4] = bait Srrm4, biological replicate 1 (first number of the cell)
[5] = bait Srrm4, biological replicate 2 (second number of the cell)

Molecule	AvgP (average of the SAINT scores) (nSR100 [1])	MaxP (maximal SAINT score) (nSR100 [1])	FoldChange between the prey Avg spectra of the bait and control purifications (nSR100 [1])	AvgSpec (average number of spectra per replicate) (nSR100 [1])	Spectra (number of spectra for the prey in the purification of the bait) (nSR100 [1]; [4])	Spectra (number of spectra for the prey in the purification of the bait) (nSR100 [1]; [5])	SpecSum (nSR100 [1])	decrease in nSR100 protein levels (nSR100 [2]; 30 minutes into KCl treatment, DIV11 cortical neurons)	nSR100 mRNA levels (nSR100 [2]; thirty minutes after depolarization, qRT-PCR)	number of alternative splicing events displaying changes ([3]; 30 minutes after KCl treatment)	microexons with increased skipping, share of all microexons ([3]; 3 hours of KCl treatment)	number of microexons with higher inclusion levels ([3]; 3 hours of KCl treatment)	number of microexons with increased skipping (of 598 detected) ([3]; 3 hours of KCl treatment)	number of alternative splicing events displaying changes ([3]; 3 hours of KCl treatment)
Snrnp70	1	1	5.1	51	48	54	102	–	–	–	–	–	–	–
Idh2	1	1	6.6	16.5	17	16	33	–	–	–	–	–	–	–
Ywhae	1	1	3.57	25	24	26	50	–	–	–	–	–	–	–
Prrc2a	0.95	0.95	20	2	2|2	2|2	4	–	–	–	–	–	–	–
Snrpc	0.99	1	11	5.5	5	6	11	–	–	–	–	–	–	–
Nudt21	0.97	1	4	14	16	12	28	–	–	–	–	–	–	–
Pcbp1	0.99	1	11.33	17	16	18	34	–	–	–	–	–	–	–
Gpatch8	0.95	0.95	20	2	2|2	2|2	4	–	–	–	–	–	–	–
[Cl-].[K+] [KCl]	–	–	–	–	–	–	–	2 fold	remain steady	222	14.7%	7	88	1,829
Clk3	0.97	0.99	25	2.5	2	3	5	–	–	–	–	–	–	–
Magohb	1	1	21	10.5	10	11	21	–	–	–	–	–	–	–
Ap2m1	1	1	9.12	36.5	31	42	73	–	–	–	–	–	–	–
Prpf8	1	1	3.36	60.5	63	58	121	–	–	–	–	–	–	–
Ddx39b	1	1	150	15	15|15	15|15	30	–	–	–	–	–	–	–
Pnn	1	1	25.33	38	33	43	76	–	–	–	–	–	–	–
Wdr48	1	1	45	4.5	3	6	9	–	–	–	–	–	–	–
